The subject of series [1] is Zymoseptoria tritici (SEPTTR-184). Description: Cyp51 dsRNA tile (fragment) foliar application bioassay (Example 6). It counts as in vivo. The conditions noted are these: for ED50 (ppm) SEPTTR-184 1DP / ED80 (ppm) SEPTTR-184 1DP / Disease Control (%) SEPTTR-184 1DP: 1 day protectant; for ED50 (ppm) SEPTTR-184 1DP / ED80 (ppm) SEPTTR-184 1DP / ED50 (ppm) SEPTTR-184 3DC / ED80 (ppm) SEPTTR-184 3DC: calculated from disease control; for Disease Control (%) SEPTTR-184 1DP / Disease Control (%) SEPTTR-184 3DC: average of 2 trials; for ED50 (ppm) SEPTTR-184 3DC / ED80 (ppm) SEPTTR-184 3DC / Disease Control (%) SEPTTR-184 3DC: 3 days curative. On the procedure: The 200 ppm concentration for each treatment was prepared by adding the calculated volume of the corresponding dsRNA solution in TE buffer. […] A non-target dsRNA control (YFP), a TE/phosphate buffer control, disease pressure control, and clean plant control were included.
(§1) These plants were inoculated with an aqueous spore suspension of Zymoseptoria tritici either prior to or after fungicidal treatments. After inoculation the plants were kept in 100% relative humidity to allow spores to germinate and infect the leaves. The plants were then transferred to a greenhouse set at 20° C. until disease developed.

Series [2] concerns Zymoseptoria tritici (SEPTTR US-184). Description: Cyp51 dsRNA foliar application bioassay on wheat seedlings, isolate US-184 (Example 5). Format: in vivo. The conditions noted are these: compared to the non-treated control; isolate not given. On the procedure: RNAi (dsRNA) fungicidal solutions were prepared in TE buffer (pH 8.0), which were then mixed with 9 volumes of phosphate buffer (pH 7.5) containing an adjuvant. The fungicidal solutions were applied to wheat seedlings using an automated booth sprayer to run-off. All sprayed plants were allowed to air dry prior to further handling.
The following served as controls: adjuvant in phosphate buffer control, disease pressure control (untreated), and clean plant control (negative control).
as §1

Some results are limits rather than exact numbers.

B1: MgCyp51-T6: dsRNA tile of Zymoseptoria tritici Cyp51, 280 bp, location 881-1160 (nucleic acid, listed as Zymoseptoria tritici)
chain: ATGCCATTCCCGACAAGGAGATTGCTCATATGATGATTGCGCTGCTCATGGCCGGCCAGCACTCTTCATCTGCGACCGAGTCCTGGATCACTCTCCGCCTCGCATCCCGCCCCGACATCCAAGACGAACTCCTCCAAGAACAAAAGGATATGCTCGGTGTGAACGCCGACGGCAGTATCAAGGAGCTCACATACGCCAACCTCTCGAAACTCACCCTCCTCAATCAAGTCGTCAAAGAAACCCTTCGTATTCACGCTCCAATCCACTCCATTCTGCGCAA
As for B1, in series [1], the “ED50 (ppm) SEPTTR-184 1DP” value is 3.125 ppm, the “ED80 (ppm) SEPTTR-184 1DP” value is reported as above 200 ppm, the “ED50 (ppm) SEPTTR-184 3DC” value is recorded as 29.167 ppm and the “ED80 (ppm) SEPTTR-184 3DC” value is above 200 ppm. Also, in series [1] (rate 3.125 ppm), the “Disease Control (%) SEPTTR-184 1DP” value is 50% and the “Disease Control (%) SEPTTR-184 3DC” value stood at 48%. In series [1] (rate 12.5 ppm), the “Disease Control (%) SEPTTR-184 1DP” value is given as 55% and the “Disease Control (%) SEPTTR-184 3DC” value is given as 46%. Also, in series [1] (rate 50 ppm), the “Disease Control (%) SEPTTR-184 1DP” value is 71% and the “Disease Control (%) SEPTTR-184 3DC” value came out at 55%. In addition, in series [1] (rate 200 ppm), the “Disease Control (%) SEPTTR-184 1DP” value is reported as 74% and the “Disease Control (%) SEPTTR-184 3DC” value is reported as 61%. The “control of Septoria leaf blotch on wheat seedlings” value (shortened to “control of Septoria leaf blotch”) in series [2] is “control Septoria leaf blotch”.

B2: MgCyp51-T8: dsRNA tile of Zymoseptoria tritici Cyp51, 242 bp, location 1151-1392 (nucleic acid, listed as Zymoseptoria tritici)
chain: TTCTGCGCAAGGTCAAGTCTCCCATGCCCATCGAAGGTACGGCATACGTCATTCCAACCACCCACACTCTTCTGGCCGCTCCGGGCACAACGAGCCGCATGGACGAGCACTTTCCCGACTGCCTCCATTGGGAGCCGCATCGATGGGACGAGAGCCCGTCCGAGAAATACAAGCACCTGTCCCCGACGACTGCCCTAGGAAGCATCGCCGAGGAGAAAGAAGACTATGGCTACGGCCTGGTA
Take B2: in series [1], the “ED50 (ppm) SEPTTR-184 1DP” value is on record as 5.208 ppm, the “ED80 (ppm) SEPTTR-184 1DP” value was above 200 ppm, the “ED50 (ppm) SEPTTR-184 3DC” value was below 3.125 ppm and the “ED80 (ppm) SEPTTR-184 3DC” value is on record as above 200 ppm. Further, in series [1] (rate 3.125 ppm), the “Disease Control (%) SEPTTR-184 1DP” value worked out at 46% and the “Disease Control (%) SEPTTR-184 3DC” value came to 61%. In addition, in series [1] (rate 12.5 ppm), the “Disease Control (%) SEPTTR-184 1DP” value is 64% and the “Disease Control (%) SEPTTR-184 3DC” value was 68%. Moreover, in series [1] (rate 50 ppm), the “Disease Control (%) SEPTTR-184 1DP” value was found to be 65% and the “Disease Control (%) SEPTTR-184 3DC” value is 73%. Moreover, in series [1] (rate 200 ppm), the “Disease Control (%) SEPTTR-184 1DP” value stood at 74% and the “Disease Control (%) SEPTTR-184 3DC” value worked out at 73%. The “control of Septoria leaf blotch” value in series [2] is “control Septoria leaf blotch”.

B3: MgCyp51-T5: dsRNA tile of Zymoseptoria tritici Cyp51, 133 bp, location 1316-1448 (nucleic acid, listed as Zymoseptoria tritici)
chain: AATACAAGCACCTGTCCCCGACGACTGCCCTAGGAAGCATCGCCGAGGAGAAAGAAGACTATGGCTACGGCCTGGTAAGCAAGGGCGCGGCGTCGCCATACTTACCCTTTGGTGCGGGACGACACAGATGTAT
B3: in series [1], the “ED50 (ppm) SEPTTR-184 1DP” value is listed as below 3.125 ppm, the “ED80 (ppm) SEPTTR-184 1DP” value is on record as above 200 ppm, the “ED50 (ppm) SEPTTR-184 3DC” value is reported as below 3.125 ppm and the “ED80 (ppm) SEPTTR-184 3DC” value is above 200 ppm. Moreover, in series [1] (rate 3.125 ppm), the “Disease Control (%) SEPTTR-184 1DP” value was found to be 61% and the “Disease Control (%) SEPTTR-184 3DC” value was determined as 52%. Besides, in series [1] (rate 12.5 ppm), the “Disease Control (%) SEPTTR-184 1DP” value was found to be 66% and the “Disease Control (%) SEPTTR-184 3DC” value worked out at 64%. Further, in series [1] (rate 50 ppm), the “Disease Control (%) SEPTTR-184 1DP” value came out at 70% and the “Disease Control (%) SEPTTR-184 3DC” value was determined as 68%. Further, in series [1] (rate 200 ppm), the “Disease Control (%) SEPTTR-184 1DP” value turned out to be 77% and the “Disease Control (%) SEPTTR-184 3DC” value is recorded as 78%. Also, the “control of Septoria leaf blotch” value in series [2] is “control Septoria leaf blotch”.

B4: MgCyp51-T12: dsRNA tile of Zymoseptoria tritici Cyp51, 138 bp, location 1377-1514 (nucleic acid, listed as Zymoseptoria tritici)
chain: TGGCTACGGCCTGGTAAGCAAGGGCGCGGCGTCGCCATACTTACCCTTTGGTGCGGGACGACACAGATGTATCGGCGAGCAATTCGCGTACGTGCAATTGCAGACCATTACAGCGACGATGGTTCGCGATTTCAAGTT
As for B4, in series [1], the “ED50 (ppm) SEPTTR-184 1DP” value is reported as below 3.125 ppm, the “ED80 (ppm) SEPTTR-184 1DP” value is above 200 ppm, the “ED50 (ppm) SEPTTR-184 3DC” value is reported as 24.219 ppm and the “ED80 (ppm) SEPTTR-184 3DC” value is listed as above 200 ppm. Also, in series [1] (rate 3.125 ppm), the “Disease Control (%) SEPTTR-184 1DP” value came to 59% and the “Disease Control (%) SEPTTR-184 3DC” value is listed as 36%. In series [1] (rate 12.5 ppm), the “Disease Control (%) SEPTTR-184 1DP” value is listed as 64% and the “Disease Control (%) SEPTTR-184 3DC” value amounted to 45%. In series [1] (rate 50 ppm), the “Disease Control (%) SEPTTR-184 1DP” value is 63% and the “Disease Control (%) SEPTTR-184 3DC” value was 61%. In series [1] (rate 200 ppm), the “Disease Control (%) SEPTTR-184 1DP” value is reported as 64% and the “Disease Control (%) SEPTTR-184 3DC” value worked out at 71%.

B5: YFP: non-target dsRNA control (YFP, yellow fluorescent protein coding region) (nucleic acid)
chain: TGTAGAAATCCTTCAGCTCGGGGCCGTACTTGGCGAAGCACTGGGCGCCGTAGGTCAGGGTGGTCACCAGGGTGCTCCAGGGCACGGGCACATCGCCGGTGGTGCAGATGAACTGGGCATCCACCTTGCCCACGCTGGCATCGCCGTAGCCCTTGCCGCGGATGCTGAAGGTGTGGCCATCCACATTGCCCTCCATCTCCACCACGTAGGGGATCTTGCCGTGGAACAGCAGGGCGCCGCTGGAGCCCAT
modifications: double-stranded RNA; synthesized partial coding region
B5: in series [1], the “ED50 (ppm) SEPTTR-184 1DP” value is above 200 ppm, the “ED80 (ppm) SEPTTR-184 1DP” value is listed as above 200 ppm, the “ED50 (ppm) SEPTTR-184 3DC” value is listed as above 200 ppm and the “ED80 (ppm) SEPTTR-184 3DC” value is recorded as above 200 ppm. Besides, in series [1] (rate 3.125 ppm), the “Disease Control (%) SEPTTR-184 1DP” value came to 0% and the “Disease Control (%) SEPTTR-184 3DC” value is on record as 15%. For the same molecule, in series [1] (rate 12.5 ppm), the “Disease Control (%) SEPTTR-184 1DP” value turned out to be 15% and the “Disease Control (%) SEPTTR-184 3DC” value was 19%. Besides, in series [1] (rate 50 ppm), the “Disease Control (%) SEPTTR-184 1DP” value is 23% and the “Disease Control (%) SEPTTR-184 3DC” value worked out at 19%. Moreover, in series [1] (rate 200 ppm), the “Disease Control (%) SEPTTR-184 1DP” value was found to be 27% and the “Disease Control (%) SEPTTR-184 3DC” value came out at 35%.

B6: MgCyp51-T13: dsRNA tile of Zymoseptoria tritici Cyp51, 119 bp, location 1517-1635 (nucleic acid, listed as Zymoseptoria tritici)
chain: ACAATGTGGATGGCAGCGACAACGTGGTGGGTACGGATTACAGCAGTTTGTTCAGCCGGCCGCTGTCGCCGGCAGTAGTAAAGTGGGAGAGGAGGGAGGAGAAGGAGGAGAAGAACTGA
modifications: long dsRNA tile, purified, chemistry not given here
For the molecule B6, in series [1], the “ED50 (ppm) SEPTTR-184 1DP” value is given as below 3.125 ppm, the “ED80 (ppm) SEPTTR-184 1DP” value was above 200 ppm, the “ED50 (ppm) SEPTTR-184 3DC” value is on record as 4.167 ppm and the “ED80 (ppm) SEPTTR-184 3DC” value is given as above 200 ppm. In series [1] (rate 3.125 ppm), the “Disease Control (%) SEPTTR-184 1DP” value is 58% and the “Disease Control (%) SEPTTR-184 3DC” value is listed as 45%. Further, in series [1] (rate 12.5 ppm), the “Disease Control (%) SEPTTR-184 1DP” value was 59% and the “Disease Control (%) SEPTTR-184 3DC” value was found to be 54%. In series [1] (rate 50 ppm), the “Disease Control (%) SEPTTR-184 1DP” value is 70% and the “Disease Control (%) SEPTTR-184 3DC” value was found to be 64%. For the same molecule, in series [1] (rate 200 ppm), the “Disease Control (%) SEPTTR-184 1DP” value is listed as 74% and the “Disease Control (%) SEPTTR-184 3DC” value was 59%.

These data come from patent publication US20180320179A1, “LANOSTEROL 14-ALPHA DEMETHYLASE (CYP51) NUCLEIC ACID MOLECULES THAT CONTROL PATHOGENS” (Dow AgroSciences LLC, priority 2017, published 2018).
